From patent US20220372155A1 (LYVGEN BIOPHARMA, published 2022)

What was measured:
[1] = molecular target: T1, Ly090 (human CD40 ECD protein with His tag) (human, UniProt P25942 21-193); experiment: bridging ELISA, coated CD40 ECD-His, soluble PD-1 ECD-mFc
T1 construct: extracellular domain; also called human CD40 ECD protein (His tag); recombinant human CD40; not shown: His tag
Experimental: (§1) Briefly, human CD40 ECD protein (His tag) was diluted and coated onto an ELISA plate with a volume of […] by incubation at 4° C. overnight. […] After 1-hour incubation at room temperature, HRP-conjugated anti-Mouse IgG (H+L) antibody was added into the plate at 100 μL/well. The plate was incubated for 1 hour at room temperature followed by washing. TMB substrate solution was added at 100 μL/well and the color development was stopped by adding 100 uL/well Stop Solution (2N H2SO4). Absorbance at 450 nm and 620 nm was read by Tecan F200 Pro plate reader. GraphPad 7.0, “[Agonist] vs. response—Variable slope (four parameters)” was used to plot the binding data and calculate binding EC50 values.

[2] = molecular target: T2, Human PD-1-ECD protein (mouse IgG2a Fc tag) (human, UniProt Q15116 25-170); experiment: as above
T2 construct: extracellular domain; also called soluble human recombinant PD-1; not shown: mouse IgG2a Fc tag
T2 sequence (Q15116 25-170): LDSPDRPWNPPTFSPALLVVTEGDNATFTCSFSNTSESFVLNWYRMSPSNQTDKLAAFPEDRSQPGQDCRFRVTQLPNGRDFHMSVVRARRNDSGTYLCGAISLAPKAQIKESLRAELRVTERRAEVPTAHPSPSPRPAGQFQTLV
Experimental: as §1

[3] = molecular target: T3, human CD40 expressed on CHO cells (human, UniProt P25942 21-277); experiment: FACS, CHO cells
T3 construct: whole, on cells; also used for the reporter cells over-expressing human CD40; also called cellular CD40; CHO-CD40 cells
T3 sequence (P25942 21-277): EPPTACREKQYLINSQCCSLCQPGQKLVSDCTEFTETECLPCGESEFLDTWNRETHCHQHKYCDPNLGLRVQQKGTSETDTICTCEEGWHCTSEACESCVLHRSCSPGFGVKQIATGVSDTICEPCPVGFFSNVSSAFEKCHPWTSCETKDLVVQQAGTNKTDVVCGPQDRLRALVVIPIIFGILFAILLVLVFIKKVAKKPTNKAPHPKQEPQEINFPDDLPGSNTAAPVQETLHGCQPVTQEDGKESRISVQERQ

[4] = molecular target: T4, human PD-1 expressed on CHO cells (human, UniProt Q15116 25-288); experiment: FACS, CHO cells
T4 construct: whole, on cells; also used for human PD-1 on Jurkat reporter cells; also called Jurkat/NFkB-Luci/PD-1 cells
T4 sequence (Q15116 25-288): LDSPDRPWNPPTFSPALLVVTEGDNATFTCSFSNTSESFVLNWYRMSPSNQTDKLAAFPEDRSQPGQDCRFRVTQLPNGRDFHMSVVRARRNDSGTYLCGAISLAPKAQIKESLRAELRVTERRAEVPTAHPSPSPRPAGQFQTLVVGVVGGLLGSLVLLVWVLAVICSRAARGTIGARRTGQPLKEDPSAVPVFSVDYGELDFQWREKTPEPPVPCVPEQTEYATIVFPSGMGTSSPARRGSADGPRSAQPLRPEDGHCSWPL

[5] = molecular target: T5, Human CD40 ECD protein (mouse IgG2a Fc tag) (human, UniProt P25942 21-193); experiment: bridging ELISA, coated B7H3-His, soluble CD40-msFc
T5 construct: extracellular domain; also called Human CD40-msFc; human recombinant CD40; not shown: mouse IgG2a Fc tag
T5 sequence (P25942 21-193): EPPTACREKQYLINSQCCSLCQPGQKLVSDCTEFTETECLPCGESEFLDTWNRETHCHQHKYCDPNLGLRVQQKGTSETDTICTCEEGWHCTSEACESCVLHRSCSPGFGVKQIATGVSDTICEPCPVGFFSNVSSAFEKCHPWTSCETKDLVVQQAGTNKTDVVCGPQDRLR

Measured: binding result

T1 sequence (P25942 21-193): as above

B1: Ly519 (bispecific antibody, human IgG1, kappa)
heavy: QVTLKESGPALVKPTQTLTLTCTFSGFSLSTSGTCVSWIRQPPGKALEWLATICWEDSKGYNPSLKSRLTISKDTSKNQAVLTMTNMDPVDTATYYCARREDSGYFWFPYWGQGTLVTVSSASTKGPSVFPLAPSSKSTSGGTAALGCLVKDYFPEPVTVSWNSGALTSGVHTFPAVLQSSGLYSLSSVVTVPSSSLGTQTYICNVNHKPSNTKVDKKVEPKSCDKTHTCPPCPAPELLGPSVFLFPPKPKDTLMISRTPEVTCVVVDVSHEDPEVKFNWYVDGVEVHNAKTKPREEQYNSTYRVVSVLTVLHQDWLNGKEYKCKVSNKALPAPIEKTISKAKGQPREPQVYTLPPSREEMTKNQVSLTCLVKGFYPSDIAVEWESNGQPENNYKTTPPVLDSDGSFFLYSKLTVDKSRWQQGNVFSCSVMHEALHNHYTQKSLSLSPGK
light: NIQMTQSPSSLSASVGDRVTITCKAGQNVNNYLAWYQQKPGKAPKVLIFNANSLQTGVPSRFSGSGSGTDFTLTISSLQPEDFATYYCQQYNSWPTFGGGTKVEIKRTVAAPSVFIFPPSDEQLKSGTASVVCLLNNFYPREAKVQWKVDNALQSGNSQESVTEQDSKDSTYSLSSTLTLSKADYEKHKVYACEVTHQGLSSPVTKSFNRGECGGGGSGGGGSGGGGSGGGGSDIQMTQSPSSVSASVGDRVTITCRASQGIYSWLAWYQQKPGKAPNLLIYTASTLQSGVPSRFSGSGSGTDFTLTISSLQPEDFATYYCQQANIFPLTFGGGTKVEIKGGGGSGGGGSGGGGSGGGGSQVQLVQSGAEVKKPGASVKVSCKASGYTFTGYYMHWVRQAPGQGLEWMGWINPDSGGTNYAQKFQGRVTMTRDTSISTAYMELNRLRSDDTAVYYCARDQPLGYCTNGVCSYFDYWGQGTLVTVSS
notes: Ly516 HC (IgG1 mutated Fc) + Ly516 LC-Ly253 scFv VL-VH
not listed: [5]
binds: all other assays above

B2: Ly520 (bispecific antibody, human IgG1, kappa)
heavy: QVTLKESGPALVKPTQTLTLTCTFSGFSLSTSGTCVSWIRQPPGKALEWLATICWEDSKGYNPSLKSRLTISKDTSKNQAVLTMTNMDPVDTATYYCARREDSGYFWFPYWGQGTLVTVSSASTKGPSVFPLAPSSKSTSGGTAALGCLVKDYFPEPVTVSWNSGALTSGVHTFPAVLQSSGLYSLSSVVTVPSSSLGTQTYICNVNHKPSNTKVDKKVEPKSCDKTHTCPPCPAPELLGPSVFLFPPKPKDTLMISRTPEVTCVVVDVSHEDPEVKFNWYVDGVEVHNAKTKPREEQYNSTYRVVSVLTVLHQDWLNGKEYKCKVSNKALPAPIEKTISKAKGQPREPQVYTLPPSREEMTKNQVSLTCLVKGFYPSDIAVEWESNGQPENNYKTTPPVLDSDGSFFLYSKLTVDKSRWQQGNVFSCSVMHEALHNHYTQKSLSLSPGK
light: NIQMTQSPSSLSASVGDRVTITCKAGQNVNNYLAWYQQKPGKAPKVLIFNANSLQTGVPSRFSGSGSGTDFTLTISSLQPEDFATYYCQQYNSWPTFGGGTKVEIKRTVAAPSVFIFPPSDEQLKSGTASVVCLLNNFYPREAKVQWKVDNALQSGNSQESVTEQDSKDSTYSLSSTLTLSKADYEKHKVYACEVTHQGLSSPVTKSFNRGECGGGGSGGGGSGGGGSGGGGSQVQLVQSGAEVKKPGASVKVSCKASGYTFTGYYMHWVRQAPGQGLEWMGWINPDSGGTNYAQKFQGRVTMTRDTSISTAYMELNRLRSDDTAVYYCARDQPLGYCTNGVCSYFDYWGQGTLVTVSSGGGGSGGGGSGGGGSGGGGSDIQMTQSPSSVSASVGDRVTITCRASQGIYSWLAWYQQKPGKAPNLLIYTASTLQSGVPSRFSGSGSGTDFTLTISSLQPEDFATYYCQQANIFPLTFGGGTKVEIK
notes: Ly516 HC (IgG1 mutated Fc) + Ly516 LC-Ly253 scFv VH-VL
not listed: [5]
binds: all other assays above

B3: Ly517 (bispecific antibody, human IgG1, kappa)
heavy: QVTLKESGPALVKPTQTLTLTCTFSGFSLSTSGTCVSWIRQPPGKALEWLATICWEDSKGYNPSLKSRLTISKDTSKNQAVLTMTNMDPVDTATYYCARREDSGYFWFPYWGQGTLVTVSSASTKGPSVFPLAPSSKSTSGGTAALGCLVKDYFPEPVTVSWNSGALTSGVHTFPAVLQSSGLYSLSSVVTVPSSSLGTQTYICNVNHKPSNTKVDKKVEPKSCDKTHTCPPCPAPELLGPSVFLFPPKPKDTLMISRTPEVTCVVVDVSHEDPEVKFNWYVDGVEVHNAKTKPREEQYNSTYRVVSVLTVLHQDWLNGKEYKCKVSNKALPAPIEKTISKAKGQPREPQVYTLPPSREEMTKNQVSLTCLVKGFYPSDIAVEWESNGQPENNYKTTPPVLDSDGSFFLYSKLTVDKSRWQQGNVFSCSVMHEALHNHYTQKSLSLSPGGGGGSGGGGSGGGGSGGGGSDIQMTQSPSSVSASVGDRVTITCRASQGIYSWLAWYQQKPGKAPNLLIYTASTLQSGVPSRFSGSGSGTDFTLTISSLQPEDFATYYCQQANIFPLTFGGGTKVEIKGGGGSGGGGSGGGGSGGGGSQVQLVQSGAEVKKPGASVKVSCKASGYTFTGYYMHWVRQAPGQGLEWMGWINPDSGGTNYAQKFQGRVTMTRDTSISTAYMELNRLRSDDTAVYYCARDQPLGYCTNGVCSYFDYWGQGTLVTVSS
light: NIQMTQSPSSLSASVGDRVTITCKAGQNVNNYLAWYQQKPGKAPKVLIFNANSLQTGVPSRFSGSGSGTDFTLTISSLQPEDFATYYCQQYNSWPTFGGGTKVEIKRTVAAPSVFIFPPSDEQLKSGTASVVCLLNNFYPREAKVQWKVDNALQSGNSQESVTEQDSKDSTYSLSSTLTLSKADYEKHKVYACEVTHQGLSSPVTKSFNRGEC
notes: Ly516 HC (IgG1 mutated Fc)-Ly253 scFv VL-VH + Ly516 LC
not listed: [5]
binds: all other assays above

B4: Ly606 (bispecific antibody, human IgG1, kappa)
heavy: QVTLKESGPALVKPTQTLTLTCTFSGFSLSTSGTCVSWIRQPPGKALEWLATICWEDSKGYNPSLKSRLTISKDTSKNQAVLTMTNMDPVDTATYYCARREDSGYFWFPYWGQGTLVTVSSASTKGPSVFPLAPSSKSTSGGTAALGCLVKDYFPEPVTVSWNSGALTSGVHTFPAVLQSSGLYSLSSVVTVPSSSLGTQTYICNVNHKPSNTKVDKKVEPKSCDKTHTCPPCPAPELLGPSVFLFPPKPKDTLMISRTPEVTCVVVDVSHEDPEVKFNWYVDGVEVHNAKTKPREEQYNSTYRVVSVLTVLHQDWLNGKEYKCKVSNKALPAPIEKTISKAKGQPREPQVYTLPPSREEMTKNQVSLTCLVKGFYPSDIAVEWESNGQPENNYKTTPPVLDSDGSFFLYSKLTVDKSRWQQGNVFSCSVMHEALHNHYTQKSLSLSPGGGGGSGGGGSGGGGSGGGGSDIQMTQSPSSLSASVGDRVTITCKASQNIYIYLNWYQQKPGKAPKLLIYNTNNLQTGVPSRFSGSGSGTDFTLTISSLQPEDFATYYCLQHSSRRTFGGGTKVEIKGGGGSGGGGSGGGGSGGGGSQVQLVESGGGLVQPGGSLKLSCATSGFNFNDYFMNWVRQASGKGLEWVGQIRNKNYNYATYYTESLEGRVTISRDDSKNTAYLQMNSLKTEDTAVYYCTSYYYDGFADYFDYWGQGTTVTVSS
light: NIQMTQSPSSLSASVGDRVTITCKAGQNVNNYLAWYQQKPGKAPKVLIFNANSLQTGVPSRFSGSGSGTDFTLTISSLQPEDFATYYCQQYNSWPTFGGGTKVEIKRTVAAPSVFIFPPSDEQLKSGTASVVCLLNNFYPREAKVQWKVDNALQSGNSQESVTEQDSKDSTYSLSSTLTLSKADYEKHKVYACEVTHQGLSSPVTKSFNRGEC
notes: Ly516 HC (IgG1 mutated Fc)-TM740 scFv VL-VH + Ly516 LC
not listed: [5]
binds: all other assays above

B5: Ly607 (bispecific antibody, human IgG1, kappa)
heavy: QVTLKESGPALVKPTQTLTLTCTFSGFSLSTSGTCVSWIRQPPGKALEWLATICWEDSKGYNPSLKSRLTISKDTSKNQAVLTMTNMDPVDTATYYCARREDSGYFWFPYWGQGTLVTVSSASTKGPSVFPLAPSSKSTSGGTAALGCLVKDYFPEPVTVSWNSGALTSGVHTFPAVLQSSGLYSLSSVVTVPSSSLGTQTYICNVNHKPSNTKVDKKVEPKSCDKTHTCPPCPAPELLGPSVFLFPPKPKDTLMISRTPEVTCVVVDVSHEDPEVKFNWYVDGVEVHNAKTKPREEQYNSTYRVVSVLTVLHQDWLNGKEYKCKVSNKALPAPIEKTISKAKGQPREPQVYTLPPSREEMTKNQVSLTCLVKGFYPSDIAVEWESNGQPENNYKTTPPVLDSDGSFFLYSKLTVDKSRWQQGNVFSCSVMHEALHNHYTQKSLSLSPGGGGGSGGGGSGGGGSGGGGSQVQLVESGGGLVQPGGSLKLSCATSGFNFNDYFMNWVRQASGKGLEWVGQIRNKNYNYATYYTESLEGRVTISRDDSKNTAYLQMNSLKTEDTAVYYCTSYYYDGFADYFDYWGQGTTVTVSSGGGGSGGGGSGGGGSGGGGSDIQMTQSPSSLSASVGDRVTITCKASQNIYIYLNWYQQKPGKAPKLLIYNTNNLQTGVPSRFSGSGSGTDFTLTISSLQPEDFATYYCLQHSSRRTFGGGTKVEIK
light: NIQMTQSPSSLSASVGDRVTITCKAGQNVNNYLAWYQQKPGKAPKVLIFNANSLQTGVPSRFSGSGSGTDFTLTISSLQPEDFATYYCQQYNSWPTFGGGTKVEIKRTVAAPSVFIFPPSDEQLKSGTASVVCLLNNFYPREAKVQWKVDNALQSGNSQESVTEQDSKDSTYSLSSTLTLSKADYEKHKVYACEVTHQGLSSPVTKSFNRGEC
notes: Ly516 HC (IgG1 mutated Fc)-TM740 scFv VH-VL + Ly516 LC
not listed: [5]
binds: all other assays above

B6: Ly518 (bispecific antibody, human IgG1, kappa)
heavy: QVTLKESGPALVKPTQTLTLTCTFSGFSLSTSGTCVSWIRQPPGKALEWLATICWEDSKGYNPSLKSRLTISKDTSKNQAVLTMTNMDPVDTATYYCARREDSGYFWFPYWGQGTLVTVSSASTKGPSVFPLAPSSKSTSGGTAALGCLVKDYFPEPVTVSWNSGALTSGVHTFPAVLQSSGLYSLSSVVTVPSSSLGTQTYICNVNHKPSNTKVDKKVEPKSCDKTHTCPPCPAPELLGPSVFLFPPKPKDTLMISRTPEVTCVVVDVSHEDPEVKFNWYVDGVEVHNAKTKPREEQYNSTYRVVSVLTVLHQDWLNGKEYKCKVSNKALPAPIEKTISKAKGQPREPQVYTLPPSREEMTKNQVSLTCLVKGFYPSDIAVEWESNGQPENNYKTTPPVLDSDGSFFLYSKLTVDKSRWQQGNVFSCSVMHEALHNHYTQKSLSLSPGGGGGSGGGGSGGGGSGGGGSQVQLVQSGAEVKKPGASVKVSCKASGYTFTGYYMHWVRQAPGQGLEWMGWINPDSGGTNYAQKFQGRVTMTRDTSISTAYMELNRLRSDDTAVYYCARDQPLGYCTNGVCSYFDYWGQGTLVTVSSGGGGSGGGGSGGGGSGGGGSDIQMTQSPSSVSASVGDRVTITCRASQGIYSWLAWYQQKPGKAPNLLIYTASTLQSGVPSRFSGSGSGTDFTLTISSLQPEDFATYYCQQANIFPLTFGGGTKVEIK
light: NIQMTQSPSSLSASVGDRVTITCKAGQNVNNYLAWYQQKPGKAPKVLIFNANSLQTGVPSRFSGSGSGTDFTLTISSLQPEDFATYYCQQYNSWPTFGGGTKVEIKRTVAAPSVFIFPPSDEQLKSGTASVVCLLNNFYPREAKVQWKVDNALQSGNSQESVTEQDSKDSTYSLSSTLTLSKADYEKHKVYACEVTHQGLSSPVTKSFNRGEC
notes: Ly516 HC (IgG1 mutated Fc)-Ly253 scFv VH-VL + Ly516 LC
not listed: [5]
binds: all other assays above

B7: Ly617 (bispecific antibody, human IgG1, kappa)
heavy: QVQLQQPGAELVKPGASVKLSCKASGYTFTSYWMHWVKQRPGQGLEWIGMIHPNSGGTNYNEKFKGKGTLTVDKSSSTAYMQLSSLTSDDSAVYYCVTSQATWFAYWGQGTLVTVSAASTKGPSVFPLAPSSKSTSGGTAALGCLVKDYFPEPVTVSWNSGALTSGVHTFPAVLQSSGLYSLSSVVTVPSSSLGTQTYICNVNHKPSNTKVDKKVEPKSCDKTHTCPPCPAPELLGPSVFLFPPKPKDTLMISRTPEVTCVVVDVSHEDPEVKFNWYVDGVEVHNAKTKPREEQYNSTYRVVSVLTVLHQDWLNGKEYKCKVSNKALPAPIEKTISKAKGQPREPQVYTLPPSREEMTKNQVSLTCLVKGFYPSDIAVEWESNGQPENNYKTTPPVLDSDGSFFLYSKLTVDKSRWQQGNVFSCSVMHEALHNHYTQKSLSLSPGGGGGSGGGGSGGGGSGGGGSEVQLVESGGGLVQPGGSLRLSCAASGFTFTNYGLHWVRQAPGKGLEWVSSISPSGGVTYYRDSVKGRFTISRDNSKNTLYLQMNSLRAEDTAVYYCAKPFLGWGGANWIAHWGQGTLVTVSSGGGGSGGGGSGGGGSGGGGSDIQMTQSPSSLSASVGDRVTITCLASEDISNDLAWYQQKPGKAPKLLIYFVDRLLDGVPSRFSGSGSGTDFTLTISSLQPEDFATYYCQQSYKYPPTFGQGTKLEIK
light: ENVLTQSPAIMSVSPGEKVTMTCRASSSVSSSYLHWYQQKSGASPKFWIYSTSNLASGVPARFSGSGSGTSYSLTISSVEAEDAATYYCQHYSGYPLTFGAGTKLELRRTVAAPSVFIFPPSDEQLKSGTASVVCLLNNFYPREAKVQWKVDNALQSGNSQESVTEQDSKDSTYSLSSTLTLSKADYEKHKVYACEVTHQGLSSPVTKSFNRGEC
notes: Ly387 HC (IgG1 mutated Fc)-TM559 scFv VH-VL + Ly387 LC
binds: [5] | [3]
